Source: patent publication US20110129412A1

Experiments:
human CD20 (human) [1] = target: human CD20 (human) (UniProt P11836); experiment: cell-based or functional assay
human CD20 (human) [2] = target: human CD20 (human) (UniProt P11836); experiment: FACS titration on SB cells expressing CD20, 3 h at 4 C, nonlinear fit of geometric mean fluorescence

Sequence of human CD20 (human) (P11836 whole entry): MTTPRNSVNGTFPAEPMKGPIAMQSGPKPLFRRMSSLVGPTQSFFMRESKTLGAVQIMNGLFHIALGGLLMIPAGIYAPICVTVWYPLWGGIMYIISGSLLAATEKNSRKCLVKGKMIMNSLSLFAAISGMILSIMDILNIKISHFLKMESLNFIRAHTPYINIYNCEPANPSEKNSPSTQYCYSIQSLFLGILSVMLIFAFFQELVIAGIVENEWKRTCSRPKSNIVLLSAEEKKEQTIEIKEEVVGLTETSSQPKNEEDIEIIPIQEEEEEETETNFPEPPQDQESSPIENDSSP

% Lysis Daudi 0.001 µg/ml ADCC (human CD20 (human) [1]): 33%
% Lysis Daudi 1 µg/ml ADCC (human CD20 (human) [1]): 95%
% Lysis Raji 0.001 µg/ml ADCC (human CD20 (human) [1]): 16%
% Lysis Raji 1 µg/ml ADCC (human CD20 (human) [1]): 62%
% Lysis Ramos 0.001 µg/ml ADCC (human CD20 (human) [1]): 5%
% Lysis Ramos 1 µg/ml ADCC (human CD20 (human) [1]): 78%
EC50 Daudi CDC (human CD20 (human) [1]): 1.56 µg/mL
EC50 Raji CDC (human CD20 (human) [1]): 0.31 µg/mL
EC50 Ramos Apoptosis Alamar Blue (human CD20 (human) [1]): 0.222 µg/mL
EC50 Ramos Apoptosis Annexin V (human CD20 (human) [1]): 2.59 µg/mL
EC50 Ramos Apoptosis Cell Titer Glo (human CD20 (human) [1]): 0.576 µg/mL
EC50 Ramos Apoptosis WST-1 (human CD20 (human) [1]): 0.0326 µg/mL
EC50 Ramos CDC (human CD20 (human) [1]): 0.43 µg/mL
Kd (human CD20 (human) [2]): 8.1 nM
Substance: Rituxan (Rituximab), Genentech (antibody)
